{
  "source": "patent US20140348819A1",
  "about": "“Methods of Treating Cancer” (Dana-Farber Cancer Institute, Inc., priority 2011, published 2014)",
  "tested_on": "six V600E BRAF melanoma cell lines",
  "assay": "Screening of recombinant RTK ligands for ability to confer resistance to BRAFi (PLX4720) or MEKi (PD184352) (Table 4)",
  "assay_type": "cell-based, human",
  "design": "ability of recombinant RTK ligand to confer resistance / ability of recombinant RTK ligand to confer resistance (screening value): scale not given here",
  "method_in_brief": "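Six V600E BRAF melanoma lines treated with PLX4720 or PD184352 after addition of 22 recombinant RTK ligands, scored for drug resistance. Activation of selected RTKs confirmed by western blotting and high-throughput tyrosine kinase phosphorylation profiling.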",
  "data": [
    {"molecule": "Ephrin-A4 (protein, UniProt P52798 26-170, looked up) Ephrin-A4: LRHVVYWNSSNPRLLRGDAVVELGLNDYLDIVCPHYEGPGPPEGPETFALYMVDWPGYESCQAEGPRAYKRWVCSLPFGHVQFSEKIQRFTPFSLGFEFLPGETYYYISVPTPESSGQCLRLQVSVCCKERKSESAHPVGSPGES", "values": [
      {"measurement": "ability of recombinant RTK ligand to confer resistance", "setting": "A2058, PD184352 - 1 uM, ligand 1.6 ng/ml", "value": 1.00},
      {"measurement": "ability of recombinant RTK ligand to confer resistance", "setting": "A2058, PD184352 - 1 uM, ligand 6.25 ng/ml", "value": 1.02},
      {"measurement": "ability of recombinant RTK ligand to confer resistance", "setting": "A2058, PD184352 - 1 uM, ligand 25 ng/ml", "value": 0.99},
      {"measurement": "ability of recombinant RTK ligand to confer resistance", "setting": "A2058, PD184352 - 1 uM, ligand 100 ng/ml", "value": 1.04},
      {"measurement": "ability of recombinant RTK ligand to confer resistance", "setting": "A2058, PD184352 - 1 uM, ligand 400 ng/ml", "value": 1.07},
      {"measurement": "ability of recombinant RTK ligand to confer resistance", "setting": "A2058, PLX4720 - 2 uM, ligand 1.6 ng/ml", "value": 0.97},
      {"measurement": "ability of recombinant RTK ligand to confer resistance", "setting": "A2058, PLX4720 - 2 uM, ligand 6.25 ng/ml", "value": 0.99},
      {"measurement": "ability of recombinant RTK ligand to confer resistance", "setting": "A2058, PLX4720 - 2 uM, ligand 25 ng/ml", "value": 0.96},
      {"measurement": "ability of recombinant RTK ligand to confer resistance", "setting": "A2058, PLX4720 - 2 uM, ligand 100 ng/ml", "value": 0.99},
      {"measurement": "ability of recombinant RTK ligand to confer resistance", "setting": "A2058, PLX4720 - 2 uM, ligand 400 ng/ml", "value": 0.98},
      {"measurement": "ability of recombinant RTK ligand to confer resistance", "setting": "C32, PD184352 - 1 uM, ligand 1.6 ng/ml", "value": 1.02},
      {"measurement": "ability of recombinant RTK ligand to confer resistance", "setting": "C32, PD184352 - 1 uM, ligand 6.25 ng/ml", "value": 1.02},
      {"measurement": "ability of recombinant RTK ligand to confer resistance", "setting": "C32, PD184352 - 1 uM, ligand 25 ng/ml", "value": 0.98},
      {"measurement": "ability of recombinant RTK ligand to confer resistance", "setting": "C32, PD184352 - 1 uM, ligand 100 ng/ml", "value": 1.04},
      {"measurement": "ability of recombinant RTK ligand to confer resistance", "setting": "C32, PD184352 - 1 uM, ligand 400 ng/ml", "value": 0.90},
      {"measurement": "ability of recombinant RTK ligand to confer resistance", "setting": "C32, PLX4720 - 2 uM, ligand 1.6 ng/ml", "value": 1.04},
      {"measurement": "ability of recombinant RTK ligand to confer resistance", "setting": "C32, PLX4720 - 2 uM, ligand 6.25 ng/ml", "value": 1.01},
      {"measurement": "ability of recombinant RTK ligand to confer resistance", "setting": "C32, PLX4720 - 2 uM, ligand 25 ng/ml", "value": 1.04},
      {"measurement": "ability of recombinant RTK ligand to confer resistance", "setting": "C32, PLX4720 - 2 uM, ligand 100 ng/ml", "value": 1.10},
      {"measurement": "ability of recombinant RTK ligand to confer resistance", "setting": "C32, PLX4720 - 2 uM, ligand 400 ng/ml", "value": 1.03},
      {"measurement": "ability of recombinant RTK ligand to confer resistance", "setting": "Colo 829, PD184352 - 1 uM, ligand 1.6 ng/ml", "value": 1.08},
      {"measurement": "ability of recombinant RTK ligand to confer resistance", "setting": "Colo 829, PD184352 - 1 uM, ligand 6.25 ng/ml", "value": 1.13},
      {"measurement": "ability of recombinant RTK ligand to confer resistance", "setting": "Colo 829, PD184352 - 1 uM, ligand 25 ng/ml", "value": 1.01},
      {"measurement": "ability of recombinant RTK ligand to confer resistance", "setting": "Colo 829, PD184352 - 1 uM, ligand 100 ng/ml", "value": 0.98},
      {"measurement": "ability of recombinant RTK ligand to confer resistance", "setting": "Colo 829, PD184352 - 1 uM, ligand 400 ng/ml", "value": 0.96},
      {"measurement": "ability of recombinant RTK ligand to confer resistance", "setting": "Colo 829, PLX4720 - 2 uM, ligand 1.6 ng/ml", "value": 1.06},
      {"measurement": "ability of recombinant RTK ligand to confer resistance", "setting": "Colo 829, PLX4720 - 2 uM, ligand 6.25 ng/ml", "value": 1.19},
      {"measurement": "ability of recombinant RTK ligand to confer resistance", "setting": "Colo 829, PLX4720 - 2 uM, ligand 25 ng/ml", "value": 1.00},
      {"measurement": "ability of recombinant RTK ligand to confer resistance", "setting": "Colo 829, PLX4720 - 2 uM, ligand 100 ng/ml", "value": 0.99},
      {"measurement": "ability of recombinant RTK ligand to confer resistance", "setting": "Colo 829, PLX4720 - 2 uM, ligand 400 ng/ml", "value": 0.90},
      {"measurement": "ability of recombinant RTK ligand to confer resistance", "setting": "G-361, PD184352 - 1 uM, ligand 1.6 ng/ml", "value": 1.11},
      {"measurement": "ability of recombinant RTK ligand to confer resistance", "setting": "G-361, PD184352 - 1 uM, ligand 6.25 ng/ml", "value": 1.09},
      {"measurement": "ability of recombinant RTK ligand to confer resistance", "setting": "G-361, PD184352 - 1 uM, ligand 25 ng/ml", "value": 1.04},
      {"measurement": "ability of recombinant RTK ligand to confer resistance", "setting": "G-361, PD184352 - 1 uM, ligand 100 ng/ml", "value": 0.98},
      {"measurement": "ability of recombinant RTK ligand to confer resistance", "setting": "G-361, PD184352 - 1 uM, ligand 400 ng/ml", "value": 0.86},
      {"measurement": "ability of recombinant RTK ligand to confer resistance", "setting": "G-361, PLX4720 - 2 uM, ligand 1.6 ng/ml", "value": 1.08},
      {"measurement": "ability of recombinant RTK ligand to confer resistance", "setting": "G-361, PLX4720 - 2 uM, ligand 6.25 ng/ml", "value": 1.05},
      {"measurement": "ability of recombinant RTK ligand to confer resistance", "setting": "G-361, PLX4720 - 2 uM, ligand 25 ng/ml", "value": 0.95},
      {"measurement": "ability of recombinant RTK ligand to confer resistance", "setting": "G-361, PLX4720 - 2 uM, ligand 100 ng/ml", "value": 1.02},
      {"measurement": "ability of recombinant RTK ligand to confer resistance", "setting": "G-361, PLX4720 - 2 uM, ligand 400 ng/ml", "value": 0.88},
      {"measurement": "ability of recombinant RTK ligand to confer resistance", "setting": "SK-MEL-5, PD184352 - 1 uM, ligand 1.6 ng/ml", "value": 0.96},
      {"measurement": "ability of recombinant RTK ligand to confer resistance", "setting": "SK-MEL-5, PD184352 - 1 uM, ligand 6.25 ng/ml", "value": 0.93},
      {"measurement": "ability of recombinant RTK ligand to confer resistance", "setting": "SK-MEL-5, PD184352 - 1 uM, ligand 25 ng/ml", "value": 0.93},
      {"measurement": "ability of recombinant RTK ligand to confer resistance", "setting": "SK-MEL-5, PD184352 - 1 uM, ligand 100 ng/ml", "value": 0.98},
      {"measurement": "ability of recombinant RTK ligand to confer resistance", "setting": "SK-MEL-5, PD184352 - 1 uM, ligand 400 ng/ml", "value": 0.99},
      {"measurement": "ability of recombinant RTK ligand to confer resistance", "setting": "SK-MEL-5, PLX4720 - 2 uM, ligand 1.6 ng/ml", "value": 0.91},
      {"measurement": "ability of recombinant RTK ligand to confer resistance", "setting": "SK-MEL-5, PLX4720 - 2 uM, ligand 6.25 ng/ml", "value": 1.07},
      {"measurement": "ability of recombinant RTK ligand to confer resistance", "setting": "SK-MEL-5, PLX4720 - 2 uM, ligand 25 ng/ml", "value": 0.99},
      {"measurement": "ability of recombinant RTK ligand to confer resistance", "setting": "SK-MEL-5, PLX4720 - 2 uM, ligand 100 ng/ml", "value": 0.99},
      {"measurement": "ability of recombinant RTK ligand to confer resistance", "setting": "SK-MEL-5, PLX4720 - 2 uM, ligand 400 ng/ml", "value": 0.93},
      {"measurement": "ability of recombinant RTK ligand to confer resistance", "setting": "SK-MEL-28, PD184352 - 1 uM, ligand 1.6 ng/ml", "value": 0.98},
      {"measurement": "ability of recombinant RTK ligand to confer resistance", "setting": "SK-MEL-28, PD184352 - 1 uM, ligand 6.25 ng/ml", "value": 0.88},
      {"measurement": "ability of recombinant RTK ligand to confer resistance", "setting": "SK-MEL-28, PD184352 - 1 uM, ligand 25 ng/ml", "value": 0.99},
      {"measurement": "ability of recombinant RTK ligand to confer resistance", "setting": "SK-MEL-28, PD184352 - 1 uM, ligand 100 ng/ml", "value": 1.07},
      {"measurement": "ability of recombinant RTK ligand to confer resistance", "setting": "SK-MEL-28, PD184352 - 1 uM, ligand 400 ng/ml", "value": 0.90},
      {"measurement": "ability of recombinant RTK ligand to confer resistance", "setting": "SK-MEL-28, PLX4720 - 2 uM, ligand 1.6 ng/ml", "value": 1.10},
      {"measurement": "ability of recombinant RTK ligand to confer resistance", "setting": "SK-MEL-28, PLX4720 - 2 uM, ligand 6.25 ng/ml", "value": 0.84},
      {"measurement": "ability of recombinant RTK ligand to confer resistance", "setting": "SK-MEL-28, PLX4720 - 2 uM, ligand 25 ng/ml", "value": 1.05},
      {"measurement": "ability of recombinant RTK ligand to confer resistance", "setting": "SK-MEL-28, PLX4720 - 2 uM, ligand 100 ng/ml", "value": 1.10},
      {"measurement": "ability of recombinant RTK ligand to confer resistance", "setting": "SK-MEL-28, PLX4720 - 2 uM, ligand 400 ng/ml", "value": 1.00}
    ]}
  ]
}
